Source: publication PMC9482650, “Quantitative fragmentomics allow affinity mapping of interactomes” (Nature Communications, 2022)

T1: DFNB31_3, Q9P202
T1 sequence (Q9P202 811-907, limits assumed, looked up): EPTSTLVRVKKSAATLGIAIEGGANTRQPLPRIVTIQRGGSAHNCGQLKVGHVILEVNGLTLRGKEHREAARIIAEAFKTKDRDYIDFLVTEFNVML

T2: DVL3, Q92997
T2 sequence (Q92997 244-331, limits assumed, looked up): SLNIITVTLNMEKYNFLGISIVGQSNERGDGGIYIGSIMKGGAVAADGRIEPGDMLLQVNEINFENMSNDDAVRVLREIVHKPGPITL

T3: GRIP1_2, Q9Y3R0
T3 sequence (Q9Y3R0 145-248, limits assumed, looked up): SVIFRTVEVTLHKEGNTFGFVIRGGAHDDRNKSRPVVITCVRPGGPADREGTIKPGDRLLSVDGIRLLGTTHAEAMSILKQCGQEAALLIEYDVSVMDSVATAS

T4: GRIP1_3, Q9Y3R0
T4 sequence (Q9Y3R0 247-346, limits assumed, looked up): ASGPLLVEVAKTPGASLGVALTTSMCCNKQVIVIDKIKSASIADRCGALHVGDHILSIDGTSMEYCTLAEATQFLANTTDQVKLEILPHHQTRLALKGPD

T5: GRIP1_5, Q9Y3R0
T5 sequence (Q9Y3R0 568-668, limits assumed, looked up): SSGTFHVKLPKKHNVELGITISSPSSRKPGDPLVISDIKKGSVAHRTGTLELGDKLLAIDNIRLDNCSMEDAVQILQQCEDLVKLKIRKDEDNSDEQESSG

T6: LIN7A, O14910
T6 sequence (O14910 103-200, limits assumed, looked up): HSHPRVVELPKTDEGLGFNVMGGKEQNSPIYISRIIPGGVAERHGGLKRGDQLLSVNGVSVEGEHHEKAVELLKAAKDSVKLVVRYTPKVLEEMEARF

T7: PDZRN3_1, Q9UPQ7
T7 sequence (Q9UPQ7 244-349, limits assumed, looked up): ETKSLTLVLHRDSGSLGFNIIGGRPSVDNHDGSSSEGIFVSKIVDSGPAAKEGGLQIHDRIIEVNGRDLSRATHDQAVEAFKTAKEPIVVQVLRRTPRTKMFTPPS

T8: RADIL, Q96JH8
T8 sequence (Q96JH8 971-1071, limits assumed, looked up): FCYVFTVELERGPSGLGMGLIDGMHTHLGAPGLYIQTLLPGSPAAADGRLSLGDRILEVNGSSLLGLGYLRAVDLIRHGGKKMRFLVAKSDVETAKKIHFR

T9: RAPGEF6, Q8TEU7
T9 sequence (Q8TEU7 525-625, limits assumed, looked up): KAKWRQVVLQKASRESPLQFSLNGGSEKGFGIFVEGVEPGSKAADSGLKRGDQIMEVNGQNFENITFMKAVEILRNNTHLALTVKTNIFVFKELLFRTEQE

T10: RHPN1, Q8TCX5
T10 sequence (Q8TCX5 508-602, limits assumed, looked up): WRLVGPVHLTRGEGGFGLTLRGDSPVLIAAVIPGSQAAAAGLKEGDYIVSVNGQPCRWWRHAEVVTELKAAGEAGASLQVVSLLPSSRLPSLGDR


Assays:
Assay in all cases: holdup assay
Parameters in all cases: key: below the threshold = too weak to quantify, mostly under pKd 3.1 to 4
Details in all cases: plain residues with an end cap or a label only (N-terminal biotin on a linker: ado-ado)
[1] = molecular target: T1, DFNB31_3, Q9P202
[2] = molecular target: DLG4_2, P78352
[3] = molecular target: DLG4_3, P78352
[4] = molecular target: T2, DVL3, Q92997
[5] = molecular target: GIPC2, Q8TF65
[6] = molecular target: GORASP1, Q9BQQ3
[7] = molecular target: GORASP2, Q9H8Y8
[8] = molecular target: T3, GRIP1_2, Q9Y3R0
[9] = molecular target: T4, GRIP1_3, Q9Y3R0
[10] = molecular target: T5, GRIP1_5, Q9Y3R0
[11] = molecular target: HTRA1, Q92743
[12] = molecular target: Inadl_10, Q8NI35
[13] = molecular target: T6, LIN7A, O14910
[14] = molecular target: LNX1_1, Q8TBB1
[15] = molecular target: LNX1_3, Q8TBB1
[16] = molecular target: MAGI1_1, Q96QZ7
[17] = molecular target: MAST2, Q6P0Q8
[18] = molecular target: NHERF4_2, Q86UT5
[19] = molecular target: NHERF4_4, Q86UT5
[20] = molecular target: PDLIM1, O00151
[21] = molecular target: T7, PDZRN3_1, Q9UPQ7
[22] = molecular target: PDZRN4_1, Q6ZMN7
[23] = molecular target: T8, RADIL, Q96JH8
[24] = molecular target: T9, RAPGEF6, Q8TEU7
[25] = molecular target: T10, RHPN1, Q8TCX5
[26] = molecular target: SCRIB_1, Q14160
[27] = molecular target: TJP2_1, Q9UDY2
Chain of TJP2_1, Q9UDY2 (Q9UDY2 24-128): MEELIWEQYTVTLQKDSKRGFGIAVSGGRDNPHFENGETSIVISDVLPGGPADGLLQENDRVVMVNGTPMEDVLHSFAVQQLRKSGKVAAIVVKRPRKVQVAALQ

Chain of LNX1_3, Q8TBB1 (Q8TBB1 500-596): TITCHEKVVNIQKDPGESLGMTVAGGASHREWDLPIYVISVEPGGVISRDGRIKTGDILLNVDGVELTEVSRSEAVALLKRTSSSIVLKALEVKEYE
Chain of GIPC2, Q8TF65 (Q8TF65 112-203): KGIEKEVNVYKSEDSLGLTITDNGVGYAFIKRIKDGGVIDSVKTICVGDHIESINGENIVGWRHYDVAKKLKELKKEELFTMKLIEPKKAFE
Chain of NHERF4_2, Q86UT5 (Q86UT5 220-308): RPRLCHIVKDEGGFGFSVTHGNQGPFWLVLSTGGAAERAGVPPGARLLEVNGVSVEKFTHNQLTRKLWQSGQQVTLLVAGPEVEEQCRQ
Chain of SCRIB_1, Q14160 (Q14160 718-814): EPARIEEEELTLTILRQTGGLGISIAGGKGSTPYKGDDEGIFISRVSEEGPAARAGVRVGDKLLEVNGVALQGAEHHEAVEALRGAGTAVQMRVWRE
Chain of NHERF4_4, Q86UT5 (Q86UT5 464-550): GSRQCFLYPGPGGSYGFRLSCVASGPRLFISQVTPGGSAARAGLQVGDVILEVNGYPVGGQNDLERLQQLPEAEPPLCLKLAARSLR
Chain of GORASP1, Q9BQQ3 (Q9BQQ3 1-208): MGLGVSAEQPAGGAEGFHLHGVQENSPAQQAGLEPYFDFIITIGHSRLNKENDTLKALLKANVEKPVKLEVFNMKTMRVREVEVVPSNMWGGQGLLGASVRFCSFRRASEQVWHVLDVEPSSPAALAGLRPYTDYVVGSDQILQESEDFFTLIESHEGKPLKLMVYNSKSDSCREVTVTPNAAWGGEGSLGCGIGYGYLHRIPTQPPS
Chain of HTRA1, Q92743 (Q92743 360-477): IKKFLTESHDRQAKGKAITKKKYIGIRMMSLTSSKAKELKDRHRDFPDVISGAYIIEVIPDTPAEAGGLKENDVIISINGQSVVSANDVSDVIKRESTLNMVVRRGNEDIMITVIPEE
Chain of DLG4_3, P78352 (P78352 306-403): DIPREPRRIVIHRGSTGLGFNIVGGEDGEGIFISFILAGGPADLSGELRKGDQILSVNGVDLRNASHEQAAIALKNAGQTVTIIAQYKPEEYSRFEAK
Chain of PDLIM1, O00151 (O00151 1-87): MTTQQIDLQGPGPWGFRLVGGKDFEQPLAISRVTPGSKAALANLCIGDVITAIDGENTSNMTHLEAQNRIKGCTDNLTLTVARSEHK
Chain of DLG4_2, P78352 (P78352 155-259): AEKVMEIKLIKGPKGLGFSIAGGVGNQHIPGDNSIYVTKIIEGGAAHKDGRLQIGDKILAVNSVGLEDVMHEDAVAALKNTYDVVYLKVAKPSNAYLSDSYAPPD
Chain of LNX1_1, Q8TBB1 (Q8TBB1 261-371): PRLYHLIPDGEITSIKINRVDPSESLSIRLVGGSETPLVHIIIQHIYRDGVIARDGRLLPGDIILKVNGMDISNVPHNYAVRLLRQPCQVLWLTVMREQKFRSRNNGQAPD
Chain of MAST2, Q6P0Q8 (Q6P0Q8 1099-1202): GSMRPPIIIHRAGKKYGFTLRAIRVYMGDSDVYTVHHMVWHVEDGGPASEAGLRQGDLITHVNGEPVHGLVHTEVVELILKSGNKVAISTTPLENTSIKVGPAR
Chain of MAGI1_1, Q96QZ7 (Q96QZ7 1-106): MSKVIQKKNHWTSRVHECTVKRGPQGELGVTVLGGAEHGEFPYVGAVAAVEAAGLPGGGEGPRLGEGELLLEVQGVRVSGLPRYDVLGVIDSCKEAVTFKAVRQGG
Chain of PDZRN4_1, Q6ZMN7 (Q6ZMN7 213-318): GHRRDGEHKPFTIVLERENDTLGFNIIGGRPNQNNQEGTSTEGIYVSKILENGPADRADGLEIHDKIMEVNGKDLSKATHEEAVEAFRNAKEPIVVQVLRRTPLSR
Chain of Inadl_10, Q8NI35 (Q8NI35 1673-1763): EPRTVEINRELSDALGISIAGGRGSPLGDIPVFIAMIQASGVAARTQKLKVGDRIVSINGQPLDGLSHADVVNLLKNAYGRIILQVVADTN

pKd [1]	pKd [2]	pKd [3]	pKd [4]	pKd [5]	pKd [6]	pKd [7]	pKd [8]	pKd [9]	pKd [10]	pKd [11]	pKd [12]	pKd [13]	pKd [14]	pKd [15]	pKd [16]	pKd [17]	pKd [18]	pKd [19]	pKd [20]	also measured	Binder
below the threshold	4.59	4.11	below the threshold	3.92	below the threshold	below the threshold	below the threshold	below the threshold	below the threshold	3.86	below the threshold	4.04	3.66	below the threshold	below the threshold	5.64	below the threshold	below the threshold	3.65	pKd [21]: 5.2; pKd [22]: 5.27; pKd [23]: below the threshold; pKd [24]: below the threshold; pKd [25]: 5.02; pKd [26]: 5.5; pKd [27]: below the threshold	RHGSCVETSL [TMEM151B, Q8IW70]
3.86	3.78	below the threshold	3.78	below the threshold	4.71	5.14	below the threshold	below the threshold	below the threshold	5.37	below the threshold	below the threshold	below the threshold	3.96	below the threshold	4.07	below the threshold	below the threshold	below the threshold	pKd [21]: below the threshold; pKd [22]: below the threshold; pKd [23]: 4.82; pKd [24]: below the threshold; pKd [25]: below the threshold; pKd [26]: below the threshold; pKd [27]: below the threshold	QSLNRMEYIV [JAG1, P78504]
below the threshold	3.66	below the threshold	below the threshold	below the threshold	3.58	3.81	3.58	below the threshold	below the threshold	4.11	below the threshold	below the threshold	below the threshold	3.61	below the threshold	4.1	3.52	3.92	below the threshold	pKd [21]: 3.51; pKd [22]: below the threshold; pKd [23]: 4.44; pKd [24]: below the threshold; pKd [25]: below the threshold; pKd [26]: below the threshold; pKd [27]: below the threshold	QMNQTLPVQV [EPHB3, P54753]
below the threshold	below the threshold	below the threshold	below the threshold	below the threshold	below the threshold	below the threshold	below the threshold	below the threshold	below the threshold	3.99	below the threshold	below the threshold	below the threshold	below the threshold	below the threshold	4.41	below the threshold	below the threshold	4.18	pKd [21]: below the threshold; pKd [22]: below the threshold; pKd [23]: below the threshold; pKd [24]: below the threshold; pKd [25]: below the threshold; pKd [26]: below the threshold; pKd [27]: below the threshold	IPLDGETEEL [MYOZ1, Q9NP98]
